The text below walks through data of the Immune Epitope Database (IEDB).

Among the targets are HLA-A*02:03; HLA-A*02:02; HLA-A*02:06.
Test in all cases: IEDB peptide-MHC binding, purified MHC/competitive/radioactivity; filed as Kd, often an IC50 or EC50 that approximates it; ≥ and ≤ were set here for values at or beyond the usual limits of such assays
Setting [1] is: source organism: Vaccinia virus WR.
The mark [2] stands for this setting: source organism: SARS coronavirus Tor2.
[3] abbreviates: source organism: Dengue virus 4 Philippines/H241/1956.
[4] abbreviates: source organism: Lymphocytic choriomeningitis virus (strain Armstrong).

Take YVKNGTKGKL: the Kd was 7.17 µM in the assay with HLA-A*02:03 (setting [1]), 5.72 µM in the assay with HLA-A*02:02 (setting [1]) and at least 28.4 µM with HLA-A*02:06 (setting [1]).

EIDVSEVKTL: the figures for the Kd with HLA-A*02:03 (setting [1]), with HLA-A*02:02 (setting [1]) and with HLA-A*02:06 (setting [1]) were 2.24 µM, 4.95 µM and at least 56 µM, respectively.

For the sequence GIADIRDKYM, the Kd amounted to 0.0482 µM in the assay with HLA-A*02:03 (setting [1]), 0.000693 µM with HLA-A*02:02 (setting [1]) and 1.78 µM with HLA-A*02:06 (setting [1]).

Consider HLTENNLYI, for which the Kd with HLA-A*02:03 (setting [1]) worked out at 14.4 µM; with HLA-A*02:02 (setting [1]), 0.114 µM; with HLA-A*02:06 (setting [1]) it was 1.81 µM.

Turning to KLFTIAMWLL, the results for the Kd with HLA-A*02:03 (setting [2]), with HLA-A*02:02 (setting [2]) and with HLA-A*02:06 (setting [2]) were 0.709 µM, 0.00853 µM and 0.262 µM, respectively.

On to GALDVSASV, for which the Kd in the assay with HLA-A*02:03 (setting [2]) is 0.00234 µM; with HLA-A*02:02 (setting [2]) it was 0.000718 µM; in the assay with HLA-A*02:06 (setting [2]), 0.00227 µM.

WLVIGVAFL: the equilibrium dissociation constant (Kd) with HLA-A*02:03 (setting [2]) was determined as 0.000942 µM; with HLA-A*02:02 (setting [2]), 0.00257 µM; in the assay with HLA-A*02:06 (setting [2]) it was 0.18 µM.

Turning to GVLIAGIIL, the Kd turned out to be 1.04 µM with HLA-A*02:03 (setting [1]), 5.24 µM with HLA-A*02:02 (setting [1]) and 0.951 µM in the assay with HLA-A*02:06 (setting [1]).

Consider KTPVIVVPVI, for which the Kd came to 6.2 µM in the assay with HLA-A*02:03 (setting [1]), 9.09 µM with HLA-A*02:02 (setting [1]) and 1.89 µM with HLA-A*02:06 (setting [1]).

For YLSSRAKLA, in the assay with HLA-A*02:03 (setting [3]), the Kd was 0.036 µM.

NITTLLNETA: the Kd was 0.106 µM in the assay with HLA-A*02:03 (setting [1]), 0.218 µM with HLA-A*02:02 (setting [1]) and 1.13 µM with HLA-A*02:06 (setting [1]).

As to SVSGDLILEI, the Kd with HLA-A*02:06 (source organism: Dengue virus 1 Brazil/97-11/1997) is 0.0891 µM.

On to RQQLEDIFM, for which the Kd with HLA-A*02:03 (setting [1]) is at least 26.9 µM; with HLA-A*02:02 (setting [1]), 5.73 µM; with HLA-A*02:06 (setting [1]) it was 0.944 µM.

Take STTGEWPLI: the figures for the Kd in the assay with HLA-A*02:03 (setting [1]), in the assay with HLA-A*02:02 (setting [1]) and in the assay with HLA-A*02:06 (setting [1]) were at least 44.5 µM, at least 21.1 µM and 1.24 µM, respectively.

RVNHAKYMVT: the values for the dissociation constant Kd with HLA-A*02:03 (setting [1]), with HLA-A*02:02 (setting [1]) and in the assay with HLA-A*02:06 (setting [1]) were 1.05 µM, at least 33.6 µM and 9.33 µM, respectively.

Regarding FQFICNLLLL, the Kd in the assay with HLA-A*02:03 (setting [2]) is 0.062 µM; with HLA-A*02:02 (setting [2]), 0.00794 µM; in the assay with HLA-A*02:06 (setting [2]), 0.00087 µM.

As to TICLKNEGV, the Kd is 0.12 µM with HLA-A*02:03 (setting [1]), 0.494 µM with HLA-A*02:02 (setting [1]) and 0.311 µM with HLA-A*02:06 (setting [1]).

In the case of VILQNAWKV, the Kd in the assay with HLA-A*02:06 (source organism: Dengue virus 2 Jamaica/1409/1983) turned out to be 0.00445 µM.

Regarding PTILATLNTL, the Kd with HLA-A*02:03 (setting [1]) came out at 0.13 µM; with HLA-A*02:02 (setting [1]) it was 0.374 µM; with HLA-A*02:06 (setting [1]) it was 0.771 µM.

Regarding YIMRVMANNV, the Kd with HLA-A*02:03 (setting [1]) was found to be 0.00196 µM; with HLA-A*02:02 (setting [1]) it was 0.023 µM; with HLA-A*02:06 (setting [1]), 0.0142 µM.

For the sequence LATLNTLIT, the Kd with HLA-A*02:03 (setting [1]) was determined as 1.55 µM; with HLA-A*02:02 (setting [1]), 1.16 µM; with HLA-A*02:06 (setting [1]) it was 14.2 µM.

For NSLILLECFV, the Kd with HLA-A*02:03 (setting [4]) was found to be 0.0466 µM; in the assay with HLA-A*02:02 (setting [4]), 0.00121 µM; with HLA-A*02:06 (setting [4]) it was 0.00417 µM.

In the case of VIDRLPSET, the Kd with HLA-A*02:03 (setting [1]) was 0.742 µM; in the assay with HLA-A*02:02 (setting [1]), 7.08 µM; with HLA-A*02:06 (setting [1]), 3.67 µM.

With FANVISKIYT, the values for the Kd with HLA-A*02:03 (setting [1]), with HLA-A*02:02 (setting [1]) and in the assay with HLA-A*02:06 (setting [1]) were 5.31 µM, 7.79 µM and 1.66 µM, respectively.

EVMPEKRNVV: the Kd in the assay with HLA-A*02:03 (setting [1]) was 2.62 µM; with HLA-A*02:02 (setting [1]) it was at least 20.2 µM; with HLA-A*02:06 (setting [1]), 12.1 µM.

In the case of FMEEEIKAEM, the Kd with HLA-A*02:03 (setting [1]) is 3.07 µM; with HLA-A*02:02 (setting [1]), 1.03 µM; with HLA-A*02:06 (setting [1]), 0.865 µM.

In the case of NIVTDLENRL, the Kd stood at 17.6 µM with HLA-A*02:03 (setting [1]), 0.261 µM with HLA-A*02:02 (setting [1]) and 1.55 µM with HLA-A*02:06 (setting [1]).

With GMAMTTVLSI, in the assay with HLA-A*02:03 (setting [3]), the dissociation constant (Kd) worked out at 0.00652 µM.

With RLATAIAGA, the dissociation constant (Kd) in the assay with HLA-A*02:03 (source organism: Dengue virus 3 Martinique/1243/1999) worked out at 0.0115 µM.

VLKAMHDKKI: the Kd was at least 33.9 µM with HLA-A*02:03 (setting [1]), at least 48.9 µM in the assay with HLA-A*02:02 (setting [1]) and at least 69.8 µM with HLA-A*02:06 (setting [1]).

Turning to KLYIALCKVT, the Kd was determined as 0.625 µM in the assay with HLA-A*02:03 (setting [1]), 7.11 µM with HLA-A*02:02 (setting [1]) and 6.36 µM with HLA-A*02:06 (setting [1]).

With AATKRYPGVM, the Kd in the assay with HLA-A*02:03 (setting [1]) was at least 47.9 µM; with HLA-A*02:02 (setting [1]), at least 20.1 µM; with HLA-A*02:06 (setting [1]), at least 46.9 µM.

For the sequence YIESKAKQL, the Kd with HLA-A*02:03 (setting [1]) stood at 0.439 µM; with HLA-A*02:02 (setting [1]) it was 0.144 µM; with HLA-A*02:06 (setting [1]), 2.99 µM.

Take IMSMMNITRL: the Kd in the assay with HLA-A*02:03 (setting [1]) worked out at 0.106 µM; with HLA-A*02:02 (setting [1]) it was 0.0618 µM; in the assay with HLA-A*02:06 (setting [1]), 0.585 µM.

As to LVITYCLVT, the Kd with HLA-A*02:03 (setting [1]) was 3.25 µM; in the assay with HLA-A*02:02 (setting [1]), 6.98 µM; with HLA-A*02:06 (setting [1]) it was 8 µM.

With KLKVDSDSGL, the dissociation constant (Kd) with HLA-A*02:03 (setting [1]) is 0.0558 µM; with HLA-A*02:02 (setting [1]), 0.0746 µM; in the assay with HLA-A*02:06 (setting [1]) it was at least 10 µM.

In the case of IMQVFFGYFA, the dissociation constant (Kd) with HLA-A*02:03 (setting [2]) came out at 1.57 µM; with HLA-A*02:02 (setting [2]), 0.59 µM; with HLA-A*02:06 (setting [2]) it was 0.0511 µM.

On to FMAYMIGQT, for which the Kd in the assay with HLA-A*02:03 (setting [3]) was determined as 0.00607 µM.
